Laboratory results as given in US20070161078A1.

Assays:
[1] = biological target: MBP.NS1 H3N2 (RSKV) (influenza A H3N2) (UniProt Q67253); assay: G assay titration
[2] = biological target: MBP.NS1 H1N1 (RSEV) (influenza A H1N1) (UniProt A3DRP6); assay: G assay titration
[3] = biological target: MBP.NS1 H3N2 (RSKV) (influenza A H3N2) (UniProt Q67253); assay: titration, direct binding sandwich assay
[4] = biological target: Peptide 1958 H5N1A (EPEV) (influenza A H5N1); assay: G assay titration
[5] = biological target: MBP.NS1 H5N1A (EPEV) (influenza A H5N1) (UniProt O56264); assay: G assay titration
[6] = biological target: MBP.NS1 H5N1B (ESEV) (influenza A H5N1) (UniProt Q6DP28); assay: G assay titration
[7] = biological target: MBP.NS1 H3N2 (RSKV) (influenza A H3N2) (UniProt Q67253); assay: direct binding assay titration
[8] = biological target: MBP.NS1 H1N1 (RSEV) (influenza A H1N1) (UniProt A3DRP6); assay: direct binding assay titration
[9] = biological target: MBP.NS1 H5N1A (EPEV) (influenza A H5N1) (UniProt O56264); assay: direct binding assay titration
[10] = biological target: MBP.NS1 H5N1B (ESEV) (influenza A H5N1) (UniProt Q6DP28); assay: direct binding assay titration
[11] = biological target: MBP.NS1 H1N1 (RSEV) (influenza A H1N1) (UniProt A3DRP6); assay: titration, direct binding sandwich assay
[12] = biological target: MBP.NS1 H5N1A (EPEV) (influenza A H5N1) (UniProt O56264); assay: titration, direct binding sandwich assay
[13] = biological target: MBP.NS1 H5N1B (ESEV) (influenza A H5N1) (UniProt Q6DP28); assay: titration, direct binding sandwich assay

Substance	EC50 [1]	EC50 [2]	EC50 [4]	also measured
INADL d8 (from UniProt Q8NI35 1431-1525)	0.9 µg/mL	3.2 µg/mL	–	EC50 [3]: 0.869 µg/mL
MAST2 d1 (from UniProt Q6P0Q8 1098-1197)	> 50 µg/mL	2 µg/mL	5.5 µg/mL	–
Magi3 d1 (from UniProt Q5TCQ9 18-106)	3 µg/mL	3.1 µg/mL	–	–
NeDLG d1,2 (from UniProt Q92796 124-316)	> 50 µg/mL	1.1 µg/mL	–	–
Outer Membrane Protein (from UniProt P08515 1-218)	13 µg/mL	1.2 µg/mL	–	EC50 [5]: 27 µg/mL; EC50 [6]: 0.2 µg/mL; EC50 [7]: 3 µg/mL; EC50 [8]: 6 µg/mL; EC50 [9]: 12.5 µg/mL; EC50 [10]: 0.8 µg/mL; EC50 [11]: 1.25 µg/mL; EC50 [12]: 12.6 µg/mL; EC50 [13]: 0.18 µg/mL
PSD95 d2 (from UniProt P31016 160-246)	–	–	3.8 µg/mL	–
